Results as given in the supplement of paper PMC7125110.
± gives the standard error. Variants at the floor of the assay were thinned out.

B1: glmS ribozyme (parent)
chain: AUAAAAGCGCCAGAACUACAGAAAUGUAGUUGACGAGGAGGAGGUUUAUCGAAUUUUCGGCGGAUGCCUCCAAA

Variants of: B1
Test: self-cleavage kobs at 2500 uM GlcN6P; higher = faster cleavage; RNA array
Details: with glucosamine-6-phosphate
In short: (§1)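 kobs was derived by fitting per-tile medians to one- or two-exponential decays after normalising signals to baseline and to non-cleaving reference variants. Those signals came from barcoded ribozyme variants transcribed in situ by E. coli RNA polymerase on sequenced MiSeq chips, followed through a hybridised Cy3 probe at 37 °C and imaged over ~14 h. Glucosamine-6-phosphate (40 μM to 10 mM) in HEPES/KCl/Mg(OAc)2 buffer was flowed in. Weighted Michaelis–Menten fits across concentrations then gave kcat and KM.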

AUAAAAGCGCCAGAACUACAGAAAUGUAGAUGACGAGGAGGAUGUUUAUCGAAUUUUCGGCGGAUGCCUCCAAA [U30A G43U] and AUAAAAGCGCCAGAACUACAGAAAUGUAGAUGACGAGUACGAGGUUUAUCGAAUUUUCGGCGGAUGCCUCCAAA [U30A G38U G40C] cannot be ordered by “self-cleavage kobs at 2500 uM GlcN6P” value: < 1e-05 s⁻¹ for the first, < 1e-05 s⁻¹ for the second.

First: AUAAAAGCGCCAGAACUACAGAAAUGUAUUUUACGAGGAGGGGGUUUAUCGAAUUUUCGGCGGAUGCCUCAAAA [G29U G32U A42G C71A]
Second: AUAAAAGCGCCAGAACUACAGAAAUGUAGAUGACGAGGAGGAGGUUUAUCAAAUUUUCGGUGGAUGCCUCCAAA [U30A G51A C61U]
The “self-cleavage kobs at 2500 uM GlcN6P” value of the first is higher: 4.56e-05 ± 1.7e-05 s⁻¹ for the first, < 1e-05 s⁻¹ for the second.

Going from AUAAAAGCGCCAGAACUACAGAAAUGUAUUUGACGAGGAGGAGGUUUAACGAAUUUUCGGCGGAUGCCUGCAAA [G29U U49A C70G] to AUAAAAGCGCCAGAACUACAGAAAUGUAGAUGACGACGAGGAGGUUUAUCGAAUUUUCGGCGGAGUCCUCCAAA [U30A G37C U65G G66U], the “self-cleavage kobs at 2500 uM GlcN6P” value falls from 5.3e-05 ± 1.9e-05 s⁻¹ to < 1e-05 s⁻¹.

Compared with AUAAAAGCGCCAGAACUACAGAAAUGUAUUUGGCGAGGAAGAGGUUUAUCGAAUUUUCGGCGGAUGCCUCCAAA [G29U A33G G40A], AUAAAAGCGCCAGAACUACAGAAAUGUACUCGACGAGGAGGAGGUUUAUCGAAUUUUCGGCGGAUGCCUACAAA [G29C U31C C70A] is higher in “self-cleavage kobs at 2500 uM GlcN6P” value: < 1e-05 s⁻¹ for the first, 7.34e-05 ± 3.4e-05 s⁻¹ for the second.

AUAAAAGCGCCAGAACUACAGAAAUGUAUUUGACGUGGAGGUGGUUUAUCGAAUUGUCGGCGGAUUCCUCCAAA [G29U A36U A42U U56G G66U] and AUAAAAGCGCCAGAACUACAGAAAUGUAGAUGACGAGAAGGAGGUUUAUCGGAUUUUCGGCGGAUGCCUCCAAA [U30A G38A A52G] cannot be ordered by “self-cleavage kobs at 2500 uM GlcN6P” value: < 1e-05 s⁻¹ for the first, < 1e-05 s⁻¹ for the second.

Compared with AUAAAAGCGCCAGAACUACAGAAAUGUAGAUUACGAGGAGGAGGUUUAUAGAAUUUUCGGCGGAUGCCUCCAAA [U30A G32U C50A], AUAAAAGCGCCAGAACUACAGAAAUGUAGAUGACGAGGAGGAGGUUUAUCGAAUUUUCGGCGGAUGCGUCCAAA [U30A C68G] is higher in “self-cleavage kobs at 2500 uM GlcN6P” value: < 1e-05 s⁻¹ for the first, 7.09e-05 ± 1.5e-05 s⁻¹ for the second.

First: AUAAAAGCGCCAGAACUACAGAAAUGUACUUGACGAGGAGGAGGUGUAUCGAAUGUUCGGCGGAUGCCUCCAAA [G29C U46G U55G]
Second: AUAAAAGCGCCAGAACUACAGAAAUGUAGAUGACGCGGAGGAGGCUUAUCGAAUUUUCGGCGGAUGCCUCCAAA [U30A A36C U45C]
The “self-cleavage kobs at 2500 uM GlcN6P” value of the first is higher: 3.45e-05 ± 1.5e-05 s⁻¹ for the first, < 1e-05 s⁻¹ for the second.

Compared with AUAAAAGCGCCAGAACUACAGAAAUGUAUUUGACGAGGAGGCGGUUUAUCGAAUUUUCGGAGGAUGCCUCCAAA [G29U A42C C61A], AUAAAAGCGCCAGAACUACAGAAAUGUAGAAGACGAGGAGGAGGUUUAUCGAAUUUACGGCGGAUGCCUCUAAA [U30A U31A U57A C71U] is higher in “self-cleavage kobs at 2500 uM GlcN6P” value: < 1e-05 s⁻¹ for the first, 0.000133 ± 3.1e-05 s⁻¹ for the second.

AUAAAAGCGCCAGAACUACAGAAAUGUAUUUGACGUGGAGGAGGUUUAUCGAAUUUUCGGCGGAUGCCUGCAAA [G29U A36U C70G] and AUAAAAGCGCCAGAACUACAGAAAUGUAGAUGUCGAGGAGGAGGUUUAUCGAAUUUUGGGCGGAUGCCCCCAAA [U30A A33U C58G U69C] are within error of each other in “self-cleavage kobs at 2500 uM GlcN6P” value: 0.000444 ± 0.0001 s⁻¹ for the first, 0.000281 ± 8.6e-05 s⁻¹ for the second.

AUAAAAGCGCCAGAACUACAGAAAUGUAUUUGACGAGGAGUAGGUUUAUCGAAUUUUCGGCGGAUGGCUCCAAA [G29U G41U C67G] and AUAAAAGCGCCAGAACUACAGAAAUGUAGCUGACGUGGAGGAGGUUUCUCGAAUUUUCGGCGGAUGCCUCCAAA [U30C A36U A48C] cannot be ordered by “self-cleavage kobs at 2500 uM GlcN6P” value: < 1e-05 s⁻¹ for the first, < 1e-05 s⁻¹ for the second.

AUAAAAGCGCCAGAACUACAGAAAUGUAUUUGACGAGCAGGAGGUUUAUCGAAUUUUCAGCGGAUGCCUCCAAA [G29U G38C G59A] and AUAAAAGCGCCAGAACUACAGAAAUGUAGAUGUCGAGGGGGAGCUUGAUCGUAUUUUCGGCGGAUGCCUCCAAA [U30A A33U A39G G44C U47G A52U] cannot be ordered by “self-cleavage kobs at 2500 uM GlcN6P” value: < 1e-05 s⁻¹ for the first, < 1e-05 s⁻¹ for the second.

First: AUAAAAGCGCCAGAACUACAGAAAUGUAGCUGACAAUGAGGAGGUUUAUCGAAUUUUCGGCGGAUGCCUACAAA [U30C G35A G37U C70A]
Second: AUAAAAGCGCCAGAACUACAGAAAUGUAGCUGACCAGGAGGAGGUUUAUAGAAUUUUCGGCGGAUGCAUCCAAA [U30C G35C C50A C68A]
The “self-cleavage kobs at 2500 uM GlcN6P” value of the first is higher: 0.000153 ± 4.9e-05 s⁻¹ for the first, < 1e-05 s⁻¹ for the second.

First: AUAAAAGCGCCAGAACUACAGAAAUGUACCUUACGAGGAGGAGGUUUAUCGCAUUUUCGGCGGAUGCCUCCAAA [G29C U30C G32U A52C]
Second: AUAAAAGCGCCAGAACUACAGAAAUGUACUUGACGAGGAGGAGGUUUAUCGAAUUUUCGGCAGAUGCCUGCAAA [G29C G62A C70G]
The “self-cleavage kobs at 2500 uM GlcN6P” value of the first is lower: < 1e-05 s⁻¹ for the first, 3.86e-05 ± 1.9e-05 s⁻¹ for the second.

Compared with AUAAAAGCGCCAGAACUACAGAAAUGUAGCUGACGAGGAGGAGGUUUAUCGAUUUUUCGGCGGAUUCCGCCAAA [U30C A53U G66U U69G], AUAAAAGCGCCAGAACUACAGAAAUGUAUUUCACGAGGAGGCGGUUUAUCGAAUUUGCGGCGGAUGCCUCCAAA [G29U G32C A42C U57G] is lower in “self-cleavage kobs at 2500 uM GlcN6P” value: 0.000128 ± 2.7e-05 s⁻¹ for the first, < 1e-05 s⁻¹ for the second.

Going from AUAAAAGCGCCAGAACUACAGAAAUGUAGAUGACGAGGAGGAGGUUUAUCGAAUUUUCGGCGAAUGCCCCCAAA [U30A G63A U69C] to AUAAAAGCGCCAGAACUACAGAAAUGUAGAGGACGAGGAGGAGGUUUCUCGAAUUUUCGGCGGAUGCCUCCAAA [U30A U31G A48C], the “self-cleavage kobs at 2500 uM GlcN6P” value rises from < 1e-05 s⁻¹ to 6.79e-05 ± 1.6e-05 s⁻¹.

First: AUAAAAGCGCCAGAACUACAGAAAUGUAGCUGACGAGGAGGAGGUUUAUCGAAUUUUGGGCGGAUGCCUUCAAA [U30C C58G C70U]
Second: AUAAAAGCGCCAGAACUACAGAAAUGUAGCUGACGAGGUGGAGGUUUAUCGAAUUGUCGGCGGAUGCCUCCAAA [U30C A39U U56G]
The “self-cleavage kobs at 2500 uM GlcN6P” value of the first is 2.3-fold higher: 5.76e-05 ± 1.9e-05 s⁻¹ for the first, 2.5e-05 ± 1.2e-05 s⁻¹ for the second.

In the case of AUAAAAGCGCCAGAACUACAGAAAUGUAUUUGACGAGGAGGAGGUUAAUCGAAUUUUCGGCGGAUGCCGCCAAA [G29U U47A U69G], the “self-cleavage kobs at 2500 uM GlcN6P” value is reported as 7.38e-05 ± 1.7e-05 s⁻¹.

Variants of: B1
Test: self-cleavage kobs at 10000 uM GlcN6P; higher = faster cleavage; RNA array
Details: with glucosamine-6-phosphate
In short: as §1

AUAAAAGCGCCAGAACUACAGAAAUGUAGAUGACGAGGAGGAUGUUUAUCGAAUUUUCGGCGGAUGCCUCCAAA [U30A G43U] and AUAAAAGCGCCAGAACUACAGAAAUGUAGAUGACGAGGAGGAGGUUUAUCAAAUUUUCGGUGGAUGCCUCCAAA [U30A G51A C61U] cannot be ordered by “self-cleavage kobs at 10000 uM GlcN6P” value: < 1e-05 s⁻¹ for the first, < 1e-05 s⁻¹ for the second.

First: AUAAAAGCGCCAGAACUACAGAAAUGUAUUUGACGAGGAGGCGGUUUAUCGAAUUUUCGGAGGAUGCCUCCAAA [G29U A42C C61A]
Second: AUAAAAGCGCCAGAACUACAGAAAUGUAGCUGACGAGGUGGAGGUUUAUCGAAUUGUCGGCGGAUGCCUCCAAA [U30C A39U U56G]
The “self-cleavage kobs at 10000 uM GlcN6P” value of the first is lower: < 1e-05 s⁻¹ for the first, 9.2e-05 ± 2.1e-05 s⁻¹ for the second.
